According to patent US11571480B2, “Multi-ligand drug conjugates and uses thereof” (priority 2015, dated 2023):
Numbered stars: 1 amine (or outer) side, 2 acyl side, 3 side chain; on linkers, the order of the positions; unused ones are H or OH. Bridge positions count the residues as written; N and C are the ends. Square brackets hold non-standard residues; d marks the D form. Peptide text beside a SMILES is read from it. I, II: the chains in the order shown. * marks the point of attachment. Hexanoyl(6-succinimido-3yl) = O=C1CC([*:1])C(=O)N1CCCCCC(=O)[*:2]; Dolaproine = CO[C@@H]([C@@H]1CCCN1)[C@@H](C)C(=O)O; Dil = CC[C@H](C)[C@H](NC)[C@@H](CC(=O)O)OC; PABC = O=C(OCc1ccc(N[*:1])cc1)[*:2]; X1 = C[C@@H](N*)[C@@H](O)c1ccccc1; Cit = NC(=O)NCCC[C@H](N)C(=O)O; NMeV = CN[C@H](C(=O)O)C(C)C

Assays:
[1] = tested on: breast cancer cell line HCC1954; test: Cytotoxicity test of conjugate LDC10H; assay type: cell-based, human; conditions: HCC1954, incubated 15-30 min, then 2-3 days
Experimental: (§1) Culture medium: RPMI 1640 Medium, no folic acid
(§2) 1) human lung cancer cell H1299, ovarian cancer cell SKOV3, breast cancer cell line HCC1954, and human lung cancer cell H460 were incubated at 37° C., 5% CO2 in RPMI 1640 medium containing 10% fetal bovine serum, the cells were passaged every 2-3 days.
(§3) 2) human lung cancer cell H1299, ovarian cancer cell SKOV3, breast cancer cell line HCC1954, and human lung cancer cell H460 were plated at 1×10^3 cells per well (96-well plate) and incubated for 8-12 h at 37° C., 5% CO2.
(§4) 3) Stock solutions of LDC conjugates or control were prepared in PBS solution. 100 μL/well of serially diluted LDC conjugates or control was added to the cells in the plate and incubated for 15-30 min at 37° C., 5% CO2. The culture medium in the wells was then removed by aspiration and the cells were incubated in fresh culture medium without conjugates (150 μL/well) for 2-3 days at 37° C., 5% CO2.
(§5) 4) CellTiter 96® Aqueous One Solution Cell Proliferation Assay (Promega) was added to each well to measure the amount of […] cells, and the plate was incubated in an incubator for 1 h at 37° C., 5% CO2.
(§6) 5) the plate was read at 490 nm on a microplate reader, and the cell survivals were compared for cells with or without the treatment of LDC conjugates. The LDC drug concentrations that are required for 50% cell death (IC50 values) were determined.

[2] = tested on: ovarian cancer cell SKOV3; test: Cytotoxicity test of conjugate LDC10H; assay type: cell-based, human; conditions: SKOV3, incubated 15-30 min, then 2-3 days
Experimental: as §1, §2, §3, §4, §5, §6

[3] = tested on: human lung cancer cell H1299; test: Cytotoxicity test of conjugate LDC10H; assay type: cell-based; conditions: H1299, incubated 15-30 min, then 2-3 days
Experimental: as §1, §2, §3, §4, §5, §6

[4] = tested on: human lung cancer cell H460; test: Cytotoxicity test of conjugate LDC10H; assay type: cell-based; conditions: H460, incubated 15-30 min, then 2-3 days
Experimental: as §1, §2, §3, §4, §5, §6

[5] = tested on: Transplanted H460 tumor; test: Inhibitory assay of conjugates LDC10B and LDC10H against xenograf tumors; assay type: in vivo, nude mice
Experimental: (§7) Animal: nude mice, aged 6-8 weeks, female
(§8) 1) human large cell lung cancer cell H460, human lung cancer cell A549, ovarian cancer cell SKOV3, and breast cancer cell line HCC1954 were incubated at 37° C., 5% CO2 in IMDM medium containing 10% fetal bovine serum, the cells were passaged every 2-3 days.
(§9) 2) generation of tumors: 7×10^6 tumor cells were injected subcutaneously into the back of nude mice, and the mice were grouped for treatment after the tumor sizes were as large as about 100-200 mm^3.
(§10) 3) treatment: 3 mice/group, treated with LDC10B, LDC10H, as well as controls MMAE and PBS with doses of 5 and 10 mg/kg every 5 days, three injections.
(§11) 4) the physical performance, body weights and tumor sizes of the animals were monitored. The number of animal death was recorded during the experiment.

[6] = tested on: Transplanted HCC1954 tumor; test: as above; assay type: in vivo, nude mice; conditions: 10 mg/kg
Experimental: as §7, §8, §9, §10, §11

[7] = Detection of conjugate concentrations in xenograf tumor models (serum, anti-MMAE ELISA); assay type: in vivo, nude mice; conditions: 10 mg/kg, peritoneal injection
Experimental: as §7
1) Human ovarian cancer cell SKOV3 and breast cancer cell line HCC1954 were incubated at 37° C., 5% CO2 in IMDM medium containing 10% fetal bovine serum, the cells were passaged every 2-3 days.
2) generation of tumors: 7×10^6 tumor cells were injected subcutaneously into the back of nude mice, and the mice were grouped for treatment after the tumor sizes were as large as about 100˜200 mm^3.
3) treatment: 3 mice/group, 10 mg/kg, peritoneal injection.
4) blood collection: the time for blood collection before treatment was set as 0, blood was collected at 20 min, 2 h, 4 h, and 24 h after treatment. The blood was centrifuged to collect serum, which was frozen and preserved.
5) Detection: the total amount of MMAE, LDC10B, LDC10H, as well as the MMAE metabolites of LDC10B and LDC10H in serum were detected by mice anti-MMAE ELISA kit.

CC[C@H](C)[C@@H]([C@@H](CC(=O)N1CCC[C@H]1[C@H](OC)[C@@H](C)C(=O)N[C@H](C)[C@@H](O)c1ccccc1)OC)N(C)C(=O)[C@@H](NC(=O)[C@H](C(C)C)N(C)C(=O)OCc1ccc(NC(=O)[C@H](CCCNC(N)=O)NC(=O)[C@@H](NC(=O)CCCCCN2C(=O)CC(SC[C@H](NC(=O)[C@H](CCCNC(=N)N)NC(=O)[C@H](CCCNC(=N)N)NC(=O)[C@H](CCCNC(=N)N)NC(=O)[C@H](CCCNC(=N)N)NC(=O)[C@H](CCCNC(=N)N)NC(=O)[C@H](CCCNC(=N)N)NC(=O)[C@H](CCCNC(=N)N)NC(=O)[C@H](CCCNC(=N)N)NC(=O)[C@@H](N)CCCNC(=N)N)C(=O)N[C@@H](CCCCN)C(=O)N[C@@H](CCC(=O)O)C(=O)N[C@@H](Cc3ccccc3)C(=O)N[C@@H](CC(C)C)C(=O)N[C@@H](Cc3c[nH]cn3)C(=O)N3CCC[C@H]3C(=O)N[C@@H](CO)C(=O)N[C@@H](CCCCN)C(=O)N[C@H](C(=O)N[C@@H](CC(=O)O)C(=O)N[C@@H](CC(C)C)C(=O)N3CCC[C@H]3C(=O)N[C@@H](CCCNC(=N)N)C(=O)O)C(C)C)C2=O)C(C)C)cc1)C(C)C (stereo partly shown) [LDC10H] (I: H-RRRRRRRRRCKEFLHPSKVDLPR-OH / II: V[Cit][PABC][NMeV]V[Dil][Dolaproine]-X1; linker I:10-II:N via Hexanoyl(6-succinimido-3yl))
IC50 [1]: 36 nM
IC50 [2]: 73.8 nM
IC50 [3]: 90.4 nM
IC50 [4]: 85.3 nM
Body weight of mice ([5]; 5 mg/kg, Before Injection): 23.29 g
Body weight of mice ([5]; 5 mg/kg, Five days after Injection 1): 24.26 g
Body weight of mice ([5]; 5 mg/kg, Five days after Injection 2): 23.14 g
Body weight of mice ([5]; 5 mg/kg, Five days after Injection 3): 23.22 g
Body weight of mice ([5]; 10 mg/kg, Before Injection): 23.37 g
Body weight of mice ([5]; 10 mg/kg, Five days after Injection 1): 24.39 g
Body weight of mice ([5]; 10 mg/kg, Five days after Injection 2): 22.12 g
Body weight of mice ([5]; 10 mg/kg, Five days after Injection 3): 23.61 g
Body weight of mice ([6]; Before Injection): 22.05 g
Body weight of mice ([6]; Five days after Injection 1): 23.32 g
Body weight of mice ([6]; Five days after Injection 2): 22.87 g
Body weight of mice ([6]; Five days after Injection 3): 22.51 g
Concentration in serum ([7]; 20 min): 770 ng/mL
Concentration in serum ([7]; 2 h): 580 ng/mL
Concentration in serum ([7]; 4 h): 196 ng/mL
Concentration in serum ([7]; 24 h): 0 ng/mL
detected in serum at 24 h after treatment (in words) ([7]; 24 h): none
Concentration in serum ([7]; Before Treatment): 0 ng/mL
